Consider five proteins from PMC9640265 (The Journal of General Physiology, 2022).

The series deals with the molecule itself. The experiment in a line: SEC. On the technique in general: SEC sorts molecules by how far they enter the pores of the column.

B1: NaKΔ18 (domain or fragment, Bacillus cereus, UniProt Q81HW2 19-114, looked up)
chain: WKDKEFQVLFVLTILTLISGTIFYSTVEGLRPIDALYFSVVTLTTVGDGNFSPQTDFGKIFTILYIFIGIGLVFGFIHKLAVNVQLPSILSNRKKE
As to B1, the stoichiometry N – broadly, the number of molecules, sites or subunits per partner or assembly – stood at 4.

B2: L35A/L61A NaKΔ18 (domain or fragment, Bacillus cereus, UniProt Q81HW2 19-114, looked up)
chain: WKDKEFQVLFVLTILTAISGTIFYSTVEGLRPIDALYFSVVTATTVGDGNFSPQTDFGKIFTILYIFIGIGLVFGFIHKLAVNVQLPSILSNRKKE
For B2, the “stoichiometry N” value worked out at 4.

B3: L61T NaKΔ18 (domain or fragment, Bacillus cereus, UniProt Q81HW2 19-114, looked up)
chain: WKDKEFQVLFVLTILTLISGTIFYSTVEGLRPIDALYFSVVTTTTVGDGNFSPQTDFGKIFTILYIFIGIGLVFGFIHKLAVNVQLPSILSNRKKE
For the protein B3, the “stoichiometry N” value was found to be 4.

B4: L35A NaKΔ18 (domain or fragment, Bacillus cereus, UniProt Q81HW2 19-114, looked up)
chain: WKDKEFQVLFVLTILTAISGTIFYSTVEGLRPIDALYFSVVTLTTVGDGNFSPQTDFGKIFTILYIFIGIGLVFGFIHKLAVNVQLPSILSNRKKE
On to B4, for which the “stoichiometry N” value amounted to 4.

B5: L61A NaKΔ18 (domain or fragment, Bacillus cereus, UniProt Q81HW2 19-114, looked up)
chain: WKDKEFQVLFVLTILTLISGTIFYSTVEGLRPIDALYFSVVTATTVGDGNFSPQTDFGKIFTILYIFIGIGLVFGFIHKLAVNVQLPSILSNRKKE
With B5, the “stoichiometry N” value amounted to 4.
